In the supplement of paper PMC10201428:
± gives the standard deviation of the averaged measurements.

Assays:
[1] = tested on: VchCAST RNA-guided transposition machinery (E. coli BL21(DE3) host, lacZ target); assay: relative integration efficiency (T-RL orientation) vs wild-type transposon end (log2 (normalized fold change)); transposon end mutated: right end (5 bp flank + 75 bp right end); higher = more efficient transposition
In short: (§1)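 Each barcoded pool, 1549 left-end or 1849 right-end transposon variants in a pUC57 mini-transposon donor, went into E. coli BL21(DE3) with a T7-driven effector plasmid (CRISPR array, tniQ-cas8-cas7-cas6, tnsA-tnsB-tnsC). Plates contained 0.1 mM IPTG and were held at 37°C for 18 h. Input plasmids and genomic integration junctions were PCR-amplified and read by Illumina sequencing, with two biological output replicates and four reference barcodes. Relative integration efficiency is the fold change of output over input barcode abundance, normalised to the reference barcodes and log-transformed.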

[2] = tested on: VchCAST RNA-guided transposition machinery (E. coli BL21(DE3) host, lacZ target); assay: relative integration efficiency (T-LR orientation) vs wild-type transposon end (log2 (normalized fold change)); transposon end mutated: right end (5 bp flank + 75 bp right end); higher = more efficient transposition
In short: as §1

| Sequence | relative integration efficiency (log2) [1] | relative integration efficiency (log2) [2] |
| --- | --- | --- |
| ACATTTGTTGATACAACCATAAAATGATAATTAATAATTCACCCATAAATTGATAATTATCACACCCATAAATTGATATTGCCTCTGATCATAGTCAGACCAACATTGCTACGACCCGTATTCGCAC | -2.69 ± 0.18 | 1.16 ± 0.069 |
| ACATTTGTTGATACAACCATAAAATGATAATTAATACACCCATAAATTGATAATTATCAACAAACGCCCGGTCGCGGTACTCTGATCATAGTCAGACCAACATTGCTACGACCCGTATTCGCACCGA | -2.6 ± 0.28 | 0.59376 ± 0.00039 |
| ACATTTGTTGATACAACCATAAAATGATAATTAATACACCCATAAATTGATAATTATCACACCCATAAATTGATATTGCCTCTGATCATAGTCAGACCAACATTGCTACGACCCGTATTCGCACCGA | -3.47 ± 0.4 | -0.393 ± 0.24 |
| ACATTTGTTGATACAACCATAAAATGATAATTAATCACCCATAAATTGATAATTATCAACAAACGCCCGGTCGCGGTACTCTGATCATAGTCAGACCAACATTGCTACGACCCGTATTCGCACCGAC | -1.83 ± 0.42 | 1.09 ± 0.077 |
| ACATTTGTTGATACAACCATAAAATGATAATTAATCACCCATAAATTGATAATTATCACACCCATAAATTGATATTGCCTCTGATCATAGTCAGACCAACATTGCTACGACCCGTATTCGCACCGAC | -1.92 ± 0.059 | -0.602 ± 0.3 |
| ACATTTGTTGATACAACCATAAAATGATAATTACAAAACGCCCGGTCGCCGGCGACACAAACGCCCGGTCGCGGTAAGAGGATCATAGTCAGACCAACATTGCTACGACCCGTATTCGCACCGACAC | -2.05 ± 0.22 | 1.07 ± 0.12 |
| ACATTTGTTGATACAACCATAAAATGATAATTACAAAACTAAATTGATAATTATCACACCCATAAATTGATATTGCCTCTGATCATAGTCAGACCAACATTGCTACGACCCGTATTCGCACCGACAC | -2.29 ± 0.15 | -2.92 ± 0.79 |
| ACATTTGTTGATACAACCATAAAATGATAATTACAAACATAAATTGATAATTATCACACCCATAAATTGATATTGCCTCTGATCATAGTCAGACCAACATTGCTACGACCCGTATTCGCACCGACAC | -0.0203 ± 0.014 | -0.426 ± 0.17 |
| ACATTTGTTGATACAACCATAAAATGATAATTACAACCATAAAATGATAATTATCACAACCATAAAATGATAATTACTCTGATCATAGTCAGACCAACATTGCTACGACCCGTATTCGCACCGACAC | -0.193 ± 0.0064 | -0.536 ± 0.21 |
| ACATTTGTTGATACAACCATAAAATGATAATTACAACCATAAAATGATAATTATCACAACCATAAAGTGATATTTACTCTGATCATAGTCAGACCAACATTGCTACGACCCGTATTCGCACCGACAC | -0.175 ± 0.14 | -0.296 ± 0.44 |
| ACATTTGTTGATACAACCATAAAATGATAATTACAACCATAAAATGATAATTATCACAACCATAAGTTGATATTTTCTCTGATCATAGTCAGACCAACATTGCTACGACCCGTATTCGCACCGACAC | -0.0104 ± 0.27 | -0.17 ± 0.32 |
| ACATTTGTTGATACAACCATAAAATGATAATTACAACCATAAAATGATAATTATCACAACCATATATTGATATCTCCTCTGATCATAGTCAGACCAACATTGCTACGACCCGTATTCGCACCGACAC | -0.16 ± 0.32 | 0.049 ± 0.22 |
| ACATTTGTTGATACAACCATAAAATGATAATTACAACCATAAAATGATAATTATCACACCCATAAATTGATAATTACTCTGATCATAGTCAGACCAACATTGCTACGACCCGTATTCGCACCGACAC | 0.0421 ± 0.03 | -0.0822 ± 0.2 |
| ACATTTGTTGATACAACCATAAAATGATAATTACAACCATAAAATGATAATTATCACACCCATAAATTGATATTGCCTCTGATCATAGTCAGACCAACATTGCTACGACCCGTATTCGCACCGACAC | -0.0716 ± 0.12 | -0.38 ± 0.42 |
| ACATTTGTTGATACAACCATAAAATGATAATTACAACCATAAAATGATAATTATCAGTGGGTATTTAACTATAACGCTCTGATCATAGTCAGACCAACATTGCTACGACCCGTATTCGCACCGACAC | -0.267 ± 0.21 | 2.54 ± 0.061 |
| ACATTTGTTGATACAACCATAAAATGATAATTACAACCATAAAATGATAATTATCATAATTATCATTTTATGGTTGCTCTGATCATAGTCAGACCAACATTGCTACGACCCGTATTCGCACCGACAC | 0.241 ± 0.067 | 1.96 ± 0.16 |
| ACATTTGTTGATACAACCATAAAATGATAATTACAACCATAAAATGATAATTATGATAATTATCATTTTATGGTTGCTCTGATCATAGTCAGACCAACATTGCTACGACCCGTATTCGCACCGACAC | 0.301 ± 0.039 | 1.99 ± 0.068 |
| ACATTTGTTGATACAACCATAAAATGATAATTACAACCATAAAGTGATATTTATCACAACCATAAAATGATAATTACTCTGATCATAGTCAGACCAACATTGCTACGACCCGTATTCGCACCGACAC | -0.258 ± 0.14 | -0.0691 ± 0.38 |
| ACATTTGTTGATACAACCATAAAATGATAATTACAACCATAAAGTGATATTTATCACAACCATAAAGTGATATTTACTCTGATCATAGTCAGACCAACATTGCTACGACCCGTATTCGCACCGACAC | 0.0131 ± 0.077 | -0.228 ± 0.22 |
| ACATTTGTTGATACAACCATAAAATGATAATTACAACCATAAAGTGATATTTATCACAACCATAAGTTGATATTTTCTCTGATCATAGTCAGACCAACATTGCTACGACCCGTATTCGCACCGACAC | -0.0894 ± 0.09 | -0.251 ± 0.14 |
| ACATTTGTTGATACAACCATAAAATGATAATTACAACCATAAAGTGATATTTATCACAACCATATATTGATATCTCCTCTGATCATAGTCAGACCAACATTGCTACGACCCGTATTCGCACCGACAC | -0.331 ± 0.17 | -0.276 ± 0.022 |
| ACATTTGTTGATACAACCATAAAATGATAATTACAACCATAAAGTGATATTTATCACACCCATAAATTGATAATTACTCTGATCATAGTCAGACCAACATTGCTACGACCCGTATTCGCACCGACAC | 0.00575 ± 0.15 | -0.0135 ± 0.3 |
| ACATTTGTTGATACAACCATAAAATGATAATTACAACCATAAAGTGATATTTATCACACCCATAAATTGATATTGCCTCTGATCATAGTCAGACCAACATTGCTACGACCCGTATTCGCACCGACAC | -0.128 ± 0.23 | -0.0327 ± 0.15 |
| ACATTTGTTGATACAACCATAAAATGATAATTACAACCATAAAGTGATATTTATCAGTGGGTATTTAACTATAACGCTCTGATCATAGTCAGACCAACATTGCTACGACCCGTATTCGCACCGACAC | -0.586 ± 0.2 | 2.5 ± 0.1 |
| ACATTTGTTGATACAACCATAAAATGATAATTACAACCATAAGTTGATATTTTTCACAACCATAAAATGATAATTACTCTGATCATAGTCAGACCAACATTGCTACGACCCGTATTCGCACCGACAC | -0.308 ± 0.21 | -0.0321 ± 0.022 |
| ACATTTGTTGATACAACCATAAAATGATAATTACAACCATAAGTTGATATTTTTCACAACCATAAAGTGATATTTACTCTGATCATAGTCAGACCAACATTGCTACGACCCGTATTCGCACCGACAC | 0.274 ± 0.2 | 0.666 ± 0.12 |
| ACATTTGTTGATACAACCATAAAATGATAATTACAACCATAAGTTGATATTTTTCACAACCATAAGTTGATATTTTCTCTGATCATAGTCAGACCAACATTGCTACGACCCGTATTCGCACCGACAC | 0.0355 ± 0.25 | -0.201 ± 0.37 |
